Assay results published in article PMC5981002, “Probing the interaction interface of the GADD45β/MKK7 and MKK7/DTP3 complexes by chemical cross-linking mass spectrometry” (International Journal of Biological Macromolecules, 2018).
Values belong to the molecule of their own block, whether it stands above or below them.

Columns and labels:
[1] = molecular target: His6-MKK7 Kinase Domain (MKK7_KD, residues 101–405, Ser271Asp and Thr275Asp) (UniProt O14733); assay: other fluorescence titration; tryptophan fluorescence quenching; 1.25 μM MKK7_KD in 10 mM phosphate buffer pH 7.5, peptide added stepwise, 25.0 °C, excitation 295 nm, emission read at 333 nm
[2] = molecular target: T1, Recombinant His6-GADD45β, O75293; assay: cross-linking; SDA reacted first with GADD45β (preliminary reaction order), then photo-cross-linking; conditions: remark: other sources report otherwise
T1 chain: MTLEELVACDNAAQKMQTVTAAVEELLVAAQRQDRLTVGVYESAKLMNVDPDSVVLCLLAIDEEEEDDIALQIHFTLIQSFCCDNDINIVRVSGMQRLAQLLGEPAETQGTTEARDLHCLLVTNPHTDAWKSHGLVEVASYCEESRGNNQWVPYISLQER

[3] = molecular target: T2, His6-MKK7 Kinase Domain (MKK7_KD, residues 101–405, Ser271Asp and Thr275Asp) (UniProt O14733 101-405, Ser271Asp | Thr275Asp); assay: ELISA; MKK7_KD coated on polystyrene wells at 100 nM; biotinylated GADD45β at 10–160 nM; detection with Streptavidin-HRP; 1:1 curve fit; conditions: both partners purified
T2 construct: Theoretical mass with tag is printed as 36194.8 Da; In the GADD45β cross-linking experiment this protein was first labelled on amines with SDA (NHS-diazirine); also called MKK7_KD 101–405; MKK7_KD (101–405); source: E. coli BL21(DE3), pETDuet-1, purified (His-Trap, Superdex 75 gel filtration)
T2 sequence (looked up): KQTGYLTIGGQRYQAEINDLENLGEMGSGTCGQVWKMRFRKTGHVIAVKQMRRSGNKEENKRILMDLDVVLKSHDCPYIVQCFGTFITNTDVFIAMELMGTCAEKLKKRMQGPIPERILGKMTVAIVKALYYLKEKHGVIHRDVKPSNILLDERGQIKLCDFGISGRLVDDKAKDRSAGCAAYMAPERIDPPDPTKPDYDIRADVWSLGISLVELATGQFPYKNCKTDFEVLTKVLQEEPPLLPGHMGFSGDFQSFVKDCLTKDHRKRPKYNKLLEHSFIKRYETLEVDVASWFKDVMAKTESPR

[4] = molecular target: T2, His6-MKK7 Kinase Domain (MKK7_KD, …); assay: SPR; Biacore3000; GADD45β covalently immobilised on a CM5 chip (EDC/NHS, pH 3.5), soluble MKK7_KD injected; KD averaged over the values at the various concentrations; conditions: both partners purified

Molecule: DTP3 (Ac-D-Tyr-D-Arg-D-Phe-NH2) (peptide)
Kd [1]: 100 nM

B3: Recombinant His6-GADD45β (natural protein, UniProt O75293 1-160, looked up)
chain: MTLEELVACDNAAQKMQTVTAAVEELLVAAQRQDRLTVGVYESAKLMNVDPDSVVLCLLAIDEEEEDDIALQIHFTLIQSFCCDNDINIVRVSGMQRLAQLLGEPAETQGTTEARDLHCLLVTNPHTDAWKSHGLVEVASYCEESRGNNQWVPYISLQER
notes: GADD45β, UniProt O75293, 160 amino acids; The theoretical mass of the tagged protein is printed as 19196.6 Da, against 17,818 Da for the 160-residue protein; also called Growth arrest and DNA-damage-inducible GADD45-family member GADD45β; source: E. coli BL21(DE3), pET28a, purified (His-Trap, Superdex 75 gel filtration)
Kd [4]: ~6 nM

Further lines, results first:

stoichiometry N [2]: 2
B1: Recombinant His6-GADD45β, O75293 1-160 (natural protein)
chain: MTLEELVACDNAAQKMQTVTAAVEELLVAAQRQDRLTVGVYESAKLMNVDPDSVVLCLLAIDEEEEDDIALQIHFTLIQSFCCDNDINIVRVSGMQRLAQLLGEPAETQGTTEARDLHCLLVTNPHTDAWKSHGLVEVASYCEESRGNNQWVPYISLQER

Kd [3]: ~30 nM
B2: biotinylated GADD45β (natural protein, UniProt O75293 1-160, looked up)
chain: MTLEELVACDNAAQKMQTVTAAVEELLVAAQRQDRLTVGVYESAKLMNVDPDSVVLCLLAIDEEEEDDIALQIHFTLIQSFCCDNDINIVRVSGMQRLAQLLGEPAETQGTTEARDLHCLLVTNPHTDAWKSHGLVEVASYCEESRGNNQWVPYISLQER
modifications: biotin (site not stated)
notes: GADD45β, UniProt O75293, 160 amino acids; as m1, biotinylated; also called biotin-GADD45β; biotinylated variant of GADD45β; source: E. coli BL21(DE3), pET28a, purified (His-Trap, gel filtration), biotinylated
